From patent US20240117018A1

How the values were obtained:
Test in all cases: cell-based or functional assay
[1] = target: HIV-1 Env of pseudovirus Ce1086_B2 (HIV-1)
[2] = target: HIV-1 Env of pseudovirus 62357_14_D3_4589 (HIV-1)
[3] = target: HIV-1 Env of pseudovirus Q461.e2 (HIV-1)
[4] = target: HIV-1 Env of pseudovirus CNE19 (HIV-1)
[5] = target: HIV-1 Env of pseudovirus Ce1176_A3 (HIV-1)
[6] = target: HIV-1 Env of pseudovirus ZM53M.PB12 (HIV-1)
[7] = target: HIV-1 Env of pseudovirus Q769.d22 (HIV-1)
[8] = target: HIV-1 Env of pseudovirus ZM135M.PL10a (HIV-1)
[9] = target: HIV-1 Env of pseudovirus ZM247v1(Rev-) (HIV-1)
[10] = target: HIV-1 Env of pseudovirus BF1266.431a (HIV-1)
[11] = target: HIV-1 Env of pseudovirus 249M B10 (HIV-1)
[12] = target: HIV-1 Env of pseudovirus Q259.d2.17 (HIV-1)
[13] = target: HIV-1 Env of pseudovirus MS208.A1 (HIV-1)
[14] = target: HIV-1 Env of pseudovirus TRO.11 (HIV-1)
[15] = target: HIV-1 Env of pseudovirus CAAN5342.A2 (HIV-1)
[16] = target: HIV-1 Env of pseudovirus ZM109F.PB4 (HIV-1)
[17] = target: HIV-1 Env of pseudovirus CNE58 (HIV-1)
[18] = target: HIV-1 Env of pseudovirus CNE21 (HIV-1)
[19] = target: HIV-1 Env of pseudovirus Ce2060_G9 (HIV-1)
[20] = target: HIV-1 Env of pseudovirus CNE17 (HIV-1)
[21] = target: HIV-1 Env of pseudovirus 7030102001E5(Rev-) (HIV-1)
[22] = target: HIV-1 Env of pseudovirus HIV-0013095-2.11 (HIV-1)
[23] = target: HIV-1 Env of pseudovirus Q23.17 (HIV-1)
[24] = target: HIV-1 Env of pseudovirus AC10.0.29 (HIV-1)
[25] = target: HIV-1 Env of pseudovirus 1394C9G1(Rev-) (HIV-1)
[26] = target: HIV-1 Env of pseudovirus WEAU_d15_410_787 (HIV-1)
[27] = target: HIV-1 Env of pseudovirus SC422661.8 (HIV-1)
[28] = target: HIV-1 Env of pseudovirus HIV-16055-2.3 (HIV-1)

In the case of 3BNC117 (antibody), the IC50 [1] is reported as 0.09 µg/mL, the IC80 [1] is reported as 0.31 µg/mL and the IC50 [2] is reported as 0.06 µg/mL. For the same substance, the IC80 [2] was 0.26 µg/mL, the IC50 [3] was 0.03 µg/mL and the IC80 [3] was 0.09 µg/mL. The IC50 [4] was 0.02 µg/mL, the IC80 [4] was 0.08 µg/mL and the IC50 [5] was 0.22 µg/mL. It also gave an IC80 [5] of 0.75 µg/mL, an IC50 [6] of 0.21 µg/mL and an IC80 [6] of 0.85 µg/mL. The IC50 [7] was 0.01 µg/mL, the IC80 [7] was 0.04 µg/mL and the IC50 [8] was 0.03 µg/mL. It also gave an IC80 [8] of 0.13 µg/mL, an IC50 [9] greater than 50 µg/mL and an IC80 [9] greater than 50 µg/mL. For the same substance, the IC50 [10] was 0.03 µg/mL, the IC80 [10] was 0.09 µg/mL and the IC50 [11] was 0.1 µg/mL. For the same substance, the IC80 [11] was 0.4 µg/mL, the IC50 [12] was 0.01 µg/mL and the IC80 [12] was 0.05 µg/mL. It also gave an IC50 [13] of 0.01 µg/mL, an IC80 [13] of 0.09 µg/mL and an IC50 [14] of less than 0.09 µg/mL. The IC80 [14] was less than 0.09 µg/mL, the IC50 [15] was 0.42 µg/mL and the IC80 [15] was 1.51 µg/mL. It also gave an IC50 [16] of 0.14 µg/mL, an IC80 [16] of 0.88 µg/mL and an IC50 [17] of 0.25 µg/mL. The IC80 [17] was 2.03 µg/mL, the IC50 [18] was 45.4 µg/mL and the IC80 [18] was greater than 50 µg/mL. For the same substance, the IC50 [19] was 0.24 µg/mL, the IC80 [19] was 0.81 µg/mL and the IC50 [20] was 5.76 µg/mL. The IC80 [20] was 43 µg/mL, the IC50 [21] was 0.29 µg/mL and the IC80 [21] was 1.44 µg/mL. It also gave an IC50 [22] of 0.33 µg/mL, an IC80 [22] of 2.53 µg/mL and an IC50 [23] of 0.005 µg/mL. For the same substance, the IC80 [23] was 0.02 µg/mL, the IC50 [24] was 13.8 µg/mL and the IC80 [24] was greater than 50 µg/mL. The IC50 [25] was greater than 50 µg/mL, the IC80 [25] was greater than 50 µg/mL and the IC50 [26] was 0.05 µg/mL. The IC80 [26] was 0.19 µg/mL, the IC50 [27] was 0.02 µg/mL and the IC80 [27] was 0.08 µg/mL. For the same substance, the IC50 [28] was 5.6 µg/mL and the IC80 [28] was greater than 50 µg/mL.
